Assay: soluble on expression in E. coli; label from the status in PepcDB or PDB records

Soluble on expression in E. coli, soluble:
MLPTTSSLQIGELAAGQALTLPIYHFKPSGKHSGPKVYIQANVHGAEVQGNAVIYQLMKQLERCDILGEITLVPLANPLGINQKSGEFTLGRFDPITGVNWNREYLNHAIDLPTWYKEHAELSDSELIQAYRSTLVEACQRRLRNDWGVTTGHRLAVNLQAMAHEADIVLDLHTGPKSCKHLYCPEYDIASAQFFAIPYTLVIPNSFGGAMDEAAFCPWWQLSEVAKVMGRDLEIAVSAFTLELASQERICLEDALVDAKGILAYLSHRGVIAEQVEPAKMRRFGCYLKDYKKYHAPMAGLVEYVAPVGEPLAAGETLVNLLRLDLYGSEQELTALSLPQDCVPILHFASASVHQGTELYKVMTNLFELPH
SNASNAVKRKGVEVIIALDISNSMLAQDVQPSRLEKAKRLISRLVDELDNDKVGMIVFAGDAFTQLPITSDYISAKMFLESISPSLISKQGTAIGEAINLATRSFTPQEGVGRAIIVITDGENHEGGAVEAAKAAAEKGIQVSVLGVGMPEGAPIPVEGTNDYRRDREGNVIVTRLNEGMCQEIAKDGKGIYVRVDNSNSAQKAISQEISKMAKSDVE
MAHHHHHHMKRDRDDSVVGTPNGKWDVSPHGTLGVEAKEFERNAVRRYVFGLVHLKNEGPKANAVDVSESIVRSFNERFRRIVKIGQGSFGEVYIVFDTVTQTHLTMKRMQLLRGAGRRVMGLCNTTSREMNLLRVLKHVNIVELFDYHVVPDGTLIMLMPVIAYDLVSLIRLWRNGGPRGEPSAGRMPLPTIKCIFRQLLTGLAYLHKERVIHRDLKPTNVMINEKGVVKIIDFGWARFCPARWRGPMTGPPCPVAYRPPEVLLGGEHAVNYDASVDLWCCGCILFEMLSGGKMFINARSEAEAVAGITDWLGSPSSKSTLYYGHSAASLIRFKQNRPSRLAHRCELLHIDRDSVDMLDKMLQLEPKWRMPAEELLRHRWFSSAPVACEPHEISLPEHNMYRWLDSKRPS
MKMQTYYYVLASRRFLLQEEPIEEVLKERTRHYHEQEKEIDFWLVPQPAFLEAPEFADIKAKCPQPAAAIISTNSQFITWLKLRLEYVVTGEFSAPSETIPNPLASLATASLEHHHHHH
MSLGLTPHAPSPLADRLRPQSLDEVVGQQHLLGPEGPIGRMAAARRLASMILWGPPGTGKTTIARLLAKAGGYEFMQISAVFSGVADLKKAFEQARARRMAGQSTLLFVDEIHRFNRAQQDGFLPFVEEGIVTLVGATTENPSFELNGALLSRCQVFVLKRLTEESLELLLQRAEAAENRPLPIDAEARSALVAMADGDGRYLLTLAETLFSIGTDTPLNPTQLGQFLQKRRPAYDKDREEHYNLISALHKSVRGSDPDAALYWLARMLEGGEDPLFIARRLVRMASEDIGAADPLSLLLTTAAKDAYDFLGSPEGELALAQAVVHMASAPKSNAVYTAYKAARRAAKETGSLMPPSHILNAPTKLMKSLGYGDGYAYDHDVEGGVSGQNYFPDGMERRRFYEPKPVGAEAKVRERLEAWGKVRKDGKEGHHHHHH
AKEDNIEMQGTVLETLPNTMFRVELENGHVVTAHISGKMRKNYIRILTGDKVTVELTPYDLSKGRIVFRSR
MTITSLDGYRWLKNDIIRGNFQPDEKLRMSLLTSRYALGVGPLREALSQLVAERLVTVVNQKGYRVASMSEQELLDIFDARANMEAMLVSLAIARGGDEWEADVLAKAHLLSKLEACDASEKMLDEWDLRHQAFHTAIVAGCGSHYLLQMRERLFDLAARYRFIWLRRTVLSVEMLEDKHDQHQTLTAAVLARDTARASELMRQHLLTPIPIIQQAMAGN
MTIRMIPHPIFSSPTKRRREKPDPPARAGAAQPSGPARMTPQQQTEWQQRLIALLESQPPDDDGAHDLSHLHRVWAVARTLLAHYPDADSIVVMAGSYLHDLVNLPKNHPQRQLASHWSAERARQLLADSGLTEAQLDNLAHAIEAHSYSAAIPPRTLEARIVQDADRMDALGPVGLARMFYVSGRMGRALAHPLDPLAEHRGRDDQAWAIDHIDVKLAKLPGMMQTEAGRAMAERKLEWLFHFRDEFCRDWMARLEHHHHHH
HDKVVVLEAKNGNVTFDHKKHAGVKGECKACHETEAGGKIAGMGKDWAHKTCTGCHKEMGKGPTKCGECHKK

Soluble on expression in E. coli, not soluble:
LNLSEKQVVKIGILQYVTHDALDAIEKGVEDGLAQEGYKGKKVKLTVLNAEADQSKIQAMSKQLVNHHNDILIGIATPSAQGLAASTKDTPIIMGAVSDPLGAKLVTNMKKPTTNVTGLSNVVPTKQTVQLIKDITPNIKRIGILYASSEDNSVSQVTEFTKYAQKAGLEVLKYSVPSTNEIKTSMSVMTKKVDAVFVPQDNTIASAFRTVIVAANQANIPVYSSVDTMVEQGSIASVAQSQYGLGLETAKQAIKVLRGKPVKDVPVKVIDTGKPSLNLKAAKHLGIKIPKKIMKQAEITVKVD
MNQLKGIHHVTAITSSAEKNYEFFTHVLGMRLVKKTVNQDDIQTYHLFFADDKGSAGTDMTFFDFPGVPKGVHGTNEISKTSFRVPTDAALAYWVKRFDRLEVEHTGIKEQFGKKTLSFVDFDDQHYQLISDELDKGIESGTPWQNGPVPLEYAITGLGPVFIRIANFSFFKEVLEKVLLFKEIAQEGEFYLFEVNKGGNGASVIVEHNTVLPEAQQGFGTVHHAAFRVEDRAVLEEWIERISSVGLPSSGYVNRHFFESLYARVAPQILFEFATDGPGFMGDESYETLGEKLSLPPFLEPKREEIEKLVRPIDTVRSTKEFIKE
MGSDKIHHHHHHAKTTTQHGNALAAYNVKRYKTVKNRNLFVKRYAFQQSYTNIFQTSPTQISSTKGKAVTFKSNVFLPVTYQRSADWGNPQSEVLTPNGNTLYELITTSSQSTTGRIVRYNLGALRHFGITSTHMDALRRATYDHSVGKLTATDKAILKNVTVGPLFNTGHGQSLARNPKNGQLWFIGKPGAVKSNVQQVSTKTLKPSTKVNFTLKNTVPMGSNLTFDKHGKAYFFTYSNGGWAPKGAVKIYQGTISTKSVHFHLVMQGLRYAPGTKPQSMAYNAKRNRLYFVSDSSLASIPVSKLGKLKASQVEGTNLNGHREFEGLQFTSNGSGYLLVNKGAELMQTTHATF
MGSDKIHHHHHHMGSLADTLRDRRQKLARLIDFPAILWSGGSNARNFPANRFPFRASSHFLYFAGLPLPNAAIHLEAGKLTLFIDDPAPGSALWHGETPKREEIAETIGADAAKPLSELTPFLAGAATIAVQDATTWTQQSQLLNRWVLPQSQPEGIDLELTKAIVTLRLIHDAGALAELRKAATVSVAAHKAGMVATANAKIEAEVRAAMESVFIAHNMTTAYNSIVTVHGEVLHNEQYHHPLQPGDLLLADVGGETELGWAADITRTWPVSGKFSPTQRDIYDVVLAAHDTCIANILPGVEYAEIHLVGARVIAEGLVNLGILRGNPEDLVEKDAHALFFPHGIGHLLGLDVHDMEDLGDLAGYEEGKKRSDRFGLGYLRLNRPLRTGMLVTIEPGFYQVPAILNDEKIRSRYQYTVNWERLSQFADVRGIRIEDDVLVTDTGSEVLTAALPNDADTVEHLVNKI
MEAESLADSGFPLEVFPQKMQSIIIDMVVHGNFKVDYVAMSMLSAASAALGNTYRIHVKQDWDTNAALYIILVGRPGMGKTPPLQLAYKPIREYERKLFDKFCHELDLYEAACATKESGSKEMKKPILKRVTLDDFTLEALVLEHYNNLRGIAINYDEILGLLANTDRYGKNPMLERLLSIWSGCHLENTRVKNDRPQRVEEPCVNIIGTTQTKRMKELMASKFMDTGFLDRILVVYPKSKKVPHWLDEEDSHVRQSEASRKWADIIGKIFGLDYARCNDTNECCPNILYMDKDAHSLFFGWWNRNVDAINAIEDDEDVETRVMKHNTHVARIALLLQALRYACGESHLQSIDVDSIEGALRLNEYCENCYQRCRAFVAEDTCDSMSKELLYLLEDSFDTKTAIKTGMENLHVTDRTVMNYIKELMKSGLITKAKKGFYEKVKFETGQATET
MNVDEDCYFASLTHGLNTDCRRANAKMKETLKNYNFSAFLVEQNCLRCPNNDCNLSFVLILQKTEFFRLKRDVVFEVRPTIVVHRSFKELVSADRKIRQDITEKNTVGVQASVETVNKFVDACPSICNIQSQTDIMAEKMHIGIQTEEVKFVSEISALGITEVECQNVFPTSFIKTEPVSTSPVRTMEVQQDNDDDDVMFIEIRPRIHEFPSTREIKQEENTTEDTVHLEKVIPEDSVRDVKDEPISEPVEQETSSSSISKELGDSGSSKFSDVADNHTASLNLSMLSQRSTVTSSSISQSIPTPRGRDTPSAAKRAKFSDVEMCRICWDVTFFTTLEEYCNHVQDRHCSVARFKCSSCERKFWDIRSGTQHLKAHNEDGAGNSISHILPEISEEHLSKFINVANQCYPETFRNTQSEKILDIINALP
KRGRSVLVLDHAKKPGRKILISGGGRCNFTNYDVSASNYLCQNPHFVKSALSQYTNWDFISMVSKHGIEFEERDHGQLFCVDAFTAKDIVKMLLAECDMPNIQQRYQCDVHTIEKTEEGFRLHAGTEPVECESLVVATGGLSMPKLGATPFGYKVAEQ
LMTIKCLLLAVMVCPFFITACSDKYSEQDRVQAINNADAPFGAGLLTFQISSDTQLNSLNEISNSCALLFLQASDKNTLQDIMNNPVLIKQFFIGTGKVDGILKVDKYVAMPGQEITLHIDRNEGTKYVGVVAGYYPFPGKQHMLLLDIPVDVVEEGWWNKSLHASLLPLSKKISMGKESISMK
SDRWEVPVNPSNVRSASSHQTVSASDRASDKVDERPATFSHFQLARCGEDYTLSMVSLAAYQAERRHRGNLIKDRSQSALPWVQVYHSETGLDYSFQIDRTTTVKVAGFNYNVPNDGETRHLYSAGTSQVNMPVITDNMSACIAVACAAENVDAGTGERRPGAKVRVFHLLPFRREDLMPEQVLASVRDYLRDIKEQGLTMRVALHGGNREGDFSVSTAEALKSLFADEGIPIEFDETCANRTSETLLGAVILNDNSTQFIKH
MAHHHHHHMHVSSAAYTRAYEWQRALNSCTGDFSSSLARCLPLRALCRRPNNVPRTLTHTSKHPHPLLLSHPRLPLSHAARTRAPPPSRCSRSTLMSVPYEEKAFPPL
MFAPSTVYTYGHHGSGTDEDDGQQVMPGMDNGDGQCMVCGDRSAGKHYGVMACYGCKGFFRRTIRSQQTYTCRFTQKCAIDKDQRNACRYCRFQRCLTVGMEPEAIRPDRDVIGKQKNPRKKKMKSDTNSGSIDASLPSPNGCDSPVSNNEDVILSFLLDVEDQATCGNNHITMPIGISMMMKNDPDFDVSTLFHSQYVRNQESFPITYAVGRTASVEQLIAALRRYVLSAVHWIDALFNLAHLTEIHDKTTLLKSVIGPFTIFNIAARTAQISDGDLICLCNKSTINRQPARHLLDTNLVGNNFVGRVIDDLVFPTKKLALTNPEITILSALIILDPDARGLSQETSQALLGIRDRVQNALFNLIRDNSNNMTSVTSRFGNLLLLFPPLAKLSSLIGENVQLAKMFGIPIDSLLVELYVDADSPELISQGSHARERSDVSTQTASLEGASASMTPDVTSSEFVKMEQNESPSSSEEPMCIGAPATSSANAVATNLAADLLGLLPNFDATGLDLASAAAAAATSVNYSHFYGFGNLGGSLDDSSSSGTGSVGSFAPHSAPPISNNVNPFAVHGFFDNSAPNTGVVHNQPFRFV
